The results in this text go back to US20080021198.

This data set concerns the target methylated PP2A A-C hetero-dimer (bovine brain, methylated in vitro with PMT and H^3-SAM), Q32PI5.

Sequence of methylated PP2A A-C hetero-dimer (bovine brain, methylated in vitro with PMT and H^3-SAM), Q32PI5 (Q32PI5 2-589, chain 1 of 2): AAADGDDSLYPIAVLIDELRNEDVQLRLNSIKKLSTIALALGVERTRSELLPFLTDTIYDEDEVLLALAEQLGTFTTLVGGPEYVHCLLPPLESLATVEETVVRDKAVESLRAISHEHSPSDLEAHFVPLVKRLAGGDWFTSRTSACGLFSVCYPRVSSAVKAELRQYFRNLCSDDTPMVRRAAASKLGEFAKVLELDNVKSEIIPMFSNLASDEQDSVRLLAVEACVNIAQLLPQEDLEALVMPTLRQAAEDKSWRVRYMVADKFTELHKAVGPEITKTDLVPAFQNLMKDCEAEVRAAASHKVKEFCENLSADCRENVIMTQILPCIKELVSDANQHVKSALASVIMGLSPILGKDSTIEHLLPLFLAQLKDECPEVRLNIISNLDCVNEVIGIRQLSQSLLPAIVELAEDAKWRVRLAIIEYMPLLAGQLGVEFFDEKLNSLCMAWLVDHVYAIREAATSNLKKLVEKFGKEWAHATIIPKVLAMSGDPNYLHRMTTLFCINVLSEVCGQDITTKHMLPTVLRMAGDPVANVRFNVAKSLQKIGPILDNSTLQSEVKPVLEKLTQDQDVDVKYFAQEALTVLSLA
Sequence of methylated PP2A A-C hetero-dimer (bovine brain, methylated in vitro with PMT and H^3-SAM), Q32PI5 (chain, as listed by the source, chain 2 of 2): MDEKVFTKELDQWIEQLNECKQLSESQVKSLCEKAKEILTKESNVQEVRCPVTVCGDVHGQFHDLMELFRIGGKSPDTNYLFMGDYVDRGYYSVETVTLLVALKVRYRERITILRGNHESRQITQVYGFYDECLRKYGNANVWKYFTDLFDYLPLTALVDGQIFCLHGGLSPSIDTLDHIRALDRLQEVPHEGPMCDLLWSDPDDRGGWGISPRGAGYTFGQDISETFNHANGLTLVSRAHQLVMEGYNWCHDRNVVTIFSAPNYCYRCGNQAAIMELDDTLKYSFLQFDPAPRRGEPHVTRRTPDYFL

B1: trypsin-resistant structural core of PME (protein)
chain 1: RDFSPVPWSQYFESMEDVEVENETGKDTFRVYKSGSEGPVLLLLHGGGHSALSWAVFTAAIISRVQCRIVALDLRSHGETKVKNPEDLSAETMAKDVGNVVEAMYGDLPPPIMLIGHSMGGAIAVHTASSNLVPSLLGLCMIDVVEGTAMDALNSMQNFLRGRPKTFKSLENAIEWSVKSGQIRNLESARVSMVGQVKQCEGITSPEGSK
chain 2: KEDDMETKKDHPYTWRIELAKTEKYWDGWFRGLSNLFLSCPIPKLLLLAGVDRLDKDLTIGQMQGKFQMQVLPQCGHAVHEDAPDKVAEAVATFLIRHRFAEPIGGFQCVFPGC
Turning to B1, the “methyl esterase activity (release of H^3-methanol)” value was “the PME core exhibits a similar methyl esterase activity to that of the full-length PME”.

B2: PME S156A mutant (protein)
chain: MSALEKSMHLGRLPSRPPLPGSGGSQSGAKMRMGPGRKRDFSPVPWSQYFESMEDVEVENETGKDTFRVYKSGSEGPVLLLLHGGGHSALSWAVFTAAIISRVQCRIVALDLRSHGETKVKNPEDLSAETMAKDVGNVVEAMYGDLPPPIMLIGHAMGGAIAVHTASSNLVPSLLGLCMIDVVEGTAMDALNSMQNFLRGRPKTFKSLENAIEWSVKSGQIRNLESARVSMVGQVKQCEGITSPEGSKSIVEGIIEEEEEDEEGSESISKRKKEDDMETKKDHPYTWRIELAKTEKYWDGWFRGLSNLFLSCPIPKLLLLAGVDRLDKDLTIGQMQGKFQMQVLPQCGHAVHEDAPDKVAEAVATFLIRHRFAEPIGGFQCVFPGC
Turning to B2, the “enzyme activity (methyl esterase, release of H^3-methanol)” value (shortened to “enzyme activity”) is reported as “mutation of Ser156 to alanine completely abolished the enzyme activity”.

B3: PME S156C mutant (protein)
chain: MSALEKSMHLGRLPSRPPLPGSGGSQSGAKMRMGPGRKRDFSPVPWSQYFESMEDVEVENETGKDTFRVYKSGSEGPVLLLLHGGGHSALSWAVFTAAIISRVQCRIVALDLRSHGETKVKNPEDLSAETMAKDVGNVVEAMYGDLPPPIMLIGHCMGGAIAVHTASSNLVPSLLGLCMIDVVEGTAMDALNSMQNFLRGRPKTFKSLENAIEWSVKSGQIRNLESARVSMVGQVKQCEGITSPEGSKSIVEGIIEEEEEDEEGSESISKRKKEDDMETKKDHPYTWRIELAKTEKYWDGWFRGLSNLFLSCPIPKLLLLAGVDRLDKDLTIGQMQGKFQMQVLPQCGHAVHEDAPDKVAEAVATFLIRHRFAEPIGGFQCVFPGC
Regarding B3, the “enzyme activity” value was “mutation to threonine and cysteine retained 10% and 40% of the enzyme activity, respectively”.

B4: full-length PP2A methyl esterase (PME) (protein)
chain: MSALEKSMHLGRLPSRPPLPGSGGSQSGAKMRMGPGRKRDFSPVPWSQYFESMEDVEVENETGKDTFRVYKSGSEGPVLLLLHGGGHSALSWAVFTAAIISRVQCRIVALDLRSHGETKVKNPEDLSAETMAKDVGNVVEAMYGDLPPPIMLIGHSMGGAIAVHTASSNLVPSLLGLCMIDVVEGTAMDALNSMQNFLRGRPKTFKSLENAIEWSVKSGQIRNLESARVSMVGQVKQCEGITSPEGSKSIVEGIIEEEEEDEEGSESISKRKKEDDMETKKDHPYTWRIELAKTEKYWDGWFRGLSNLFLSCPIPKLLLLAGVDRLDKDLTIGQMQGKFQMQVLPQCGHAVHEDAPDKVAEAVATFLIRHRFAEPIGGFQCVFPGC
B4: the “methyl esterase activity (release of H^3-methanol)” value was “the PME core exhibits a similar methyl esterase activity to that of the full-length PME”.

B5: PME S156T mutant (protein)
chain: MSALEKSMHLGRLPSRPPLPGSGGSQSGAKMRMGPGRKRDFSPVPWSQYFESMEDVEVENETGKDTFRVYKSGSEGPVLLLLHGGGHSALSWAVFTAAIISRVQCRIVALDLRSHGETKVKNPEDLSAETMAKDVGNVVEAMYGDLPPPIMLIGHTMGGAIAVHTASSNLVPSLLGLCMIDVVEGTAMDALNSMQNFLRGRPKTFKSLENAIEWSVKSGQIRNLESARVSMVGQVKQCEGITSPEGSKSIVEGIIEEEEEDEEGSESISKRKKEDDMETKKDHPYTWRIELAKTEKYWDGWFRGLSNLFLSCPIPKLLLLAGVDRLDKDLTIGQMQGKFQMQVLPQCGHAVHEDAPDKVAEAVATFLIRHRFAEPIGGFQCVFPGC
In the case of B5, the “enzyme activity” value was “mutation to threonine and cysteine retained 10% and 40% of the enzyme activity, respectively”.
